Test results from the Human Domainome abundance scans (Beltran et al. 2025).
± gives the uncertainty stated by the source.

assay: abundance fitness (aPCA) (normalised: wild type 0, dead -1); higher = more abundant; growth selection in yeast, the domain comes from the species named; conditions: Homo sapiens

Substance | abundance fitness
NEDD4-like E3 ubiquitin-protein ligase WWP2 R476Y, O00308 | -0.369 ± 0.05
NEDD4-like E3 ubiquitin-protein ligase WWP2 P444N, O00308 | 0.105 ± 0.038
NEDD4-like E3 ubiquitin-protein ligase WWP2 T455C, O00308 | -0.339 ± 0.068
NEDD4-like E3 ubiquitin-protein ligase WWP2 F479D, O00308 | 0.02 ± 0.072
NEDD4-like E3 ubiquitin-protein ligase WWP2 P475F, O00308 | -0.88 ± 0.1
NEDD4-like E3 ubiquitin-protein ligase WWP2 G449D, O00308 | -0.127 ± 0.044
NEDD4-like E3 ubiquitin-protein ligase WWP2 S481T, O00308 | 0.029 ± 0.047
NEDD4-like E3 ubiquitin-protein ligase WWP2 P475V, O00308 | -0.631 ± 0.038
NEDD4-like E3 ubiquitin-protein ligase WWP2 D492N, O00308 | -0.137 ± 0.069
NEDD4-like E3 ubiquitin-protein ligase WWP2 R460Q, O00308 | -0.104 ± 0.054
NEDD4-like E3 ubiquitin-protein ligase WWP2 K473Q, O00308 | -0.091 ± 0.082
NEDD4-like E3 ubiquitin-protein ligase WWP2 F479S, O00308 | -0.013 ± 0.042
NEDD4-like E3 ubiquitin-protein ligase WWP2 P477K, O00308 | -0.037 ± 0.052
NEDD4-like E3 ubiquitin-protein ligase WWP2 S487L, O00308 | -0.067 ± 0.04
NEDD4-like E3 ubiquitin-protein ligase WWP2 E480H, O00308 | 0.027 ± 0.068
NEDD4-like E3 ubiquitin-protein ligase WWP2 P477I, O00308 | 0.13 ± 0.075
NEDD4-like E3 ubiquitin-protein ligase WWP2 D464C, O00308 | -0.438 ± 0.074
NEDD4-like E3 ubiquitin-protein ligase WWP2 G478T, O00308 | 0.077 ± 0.059
NEDD4-like E3 ubiquitin-protein ligase WWP2 H465L, O00308 | -0.315 ± 0.045
NEDD4-like E3 ubiquitin-protein ligase WWP2 E457M, O00308 | -0.349 ± 0.071
NEDD4-like E3 ubiquitin-protein ligase WWP2 Y454C, O00308 | -0.037 ± 0.048
NEDD4-like E3 ubiquitin-protein ligase WWP2 A490G, O00308 | -0.007 ± 0.039
NEDD4-like E3 ubiquitin-protein ligase WWP2 P488Y, O00308 | -0.066 ± 0.043

Substance | abundance fitness
Transcription factor SOX-11 A102Q, P35716 | -0.628 ± 0.44
NEDD4-like E3 ubiquitin-protein ligase WWP2 S487G, O00308 | -0.03 ± 0.034
NEDD4-like E3 ubiquitin-protein ligase WWP2 S487M, O00308 | -0.024 ± 0.057
NEDD4-like E3 ubiquitin-protein ligase WWP2 N466P, O00308 | -0.636 ± 0.075
NEDD4-like E3 ubiquitin-protein ligase WWP2 S481Q, O00308 | -0.014 ± 0.039
NEDD4-like E3 ubiquitin-protein ligase WWP2 W450I, O00308 | -0.197 ± 0.083
NEDD4-like E3 ubiquitin-protein ligase WWP2 G449L, O00308 | -0.174 ± 0.038
NEDD4-like E3 ubiquitin-protein ligase WWP2 R468D, O00308 | -0.479 ± 0.06
NEDD4-like E3 ubiquitin-protein ligase WWP2 K473C, O00308 | -0.003 ± 0.066
NEDD4-like E3 ubiquitin-protein ligase WWP2 L446S, O00308 | -0.601 ± 0.054
NEDD4-like E3 ubiquitin-protein ligase WWP2 A490F, O00308 | -0.081 ± 0.051
NEDD4-like E3 ubiquitin-protein ligase WWP2 V463Y, O00308 | -0.26 ± 0.076
NEDD4-like E3 ubiquitin-protein ligase WWP2 S487W, O00308 | -0.149 ± 0.05
NEDD4-like E3 ubiquitin-protein ligase WWP2 M452H, O00308 | -0.258 ± 0.066
NEDD4-like E3 ubiquitin-protein ligase WWP2 Y454H, O00308 | -0.306 ± 0.066
NEDD4-like E3 ubiquitin-protein ligase WWP2 Q485N, O00308 | 0.095 ± 0.067
NEDD4-like E3 ubiquitin-protein ligase WWP2 M452V, O00308 | 0.034 ± 0.038
NEDD4-like E3 ubiquitin-protein ligase WWP2 E480C, O00308 | -0.611 ± 0.043
NEDD4-like E3 ubiquitin-protein ligase WWP2 K473F, O00308 | 0.102 ± 0.082
NEDD4-like E3 ubiquitin-protein ligase WWP2 R476M, O00308 | -0.324 ± 0.048
NEDD4-like E3 ubiquitin-protein ligase WWP2 Q485Y, O00308 | -0.126 ± 0.072
NEDD4-like E3 ubiquitin-protein ligase WWP2 E480L, O00308 | -0.072 ± 0.042
NEDD4-like E3 ubiquitin-protein ligase WWP2 G458C, O00308 | -0.193 ± 0.051

Substance | abundance fitness
NEDD4-like E3 ubiquitin-protein ligase WWP2 L446D, O00308 | -0.556 ± 0.048
NEDD4-like E3 ubiquitin-protein ligase WWP2 R493W, O00308 | -0.013 ± 0.071
NEDD4-like E3 ubiquitin-protein ligase WWP2 T483L, O00308 | -0.039 ± 0.044
NEDD4-like E3 ubiquitin-protein ligase WWP2 P475G, O00308 | -1 ± 0.042
NEDD4-like E3 ubiquitin-protein ligase WWP2 P475E, O00308 | -0.785 ± 0.15
NEDD4-like E3 ubiquitin-protein ligase WWP2 G486N, O00308 | -0.177 ± 0.12
NEDD4-like E3 ubiquitin-protein ligase WWP2 I441F, O00308 | -0.13 ± 0.059
NEDD4-like E3 ubiquitin-protein ligase WWP2 K453H, O00308 | -0.137 ± 0.047
NEDD4-like E3 ubiquitin-protein ligase WWP2 H465R, O00308 | -0.278 ± 0.036
NEDD4-like E3 ubiquitin-protein ligase WWP2 V459L, O00308 | -0.073 ± 0.04
NEDD4-like E3 ubiquitin-protein ligase WWP2 V463N, O00308 | -0.386 ± 0.056
NEDD4-like E3 ubiquitin-protein ligase WWP2 G486R, O00308 | -0.028 ± 0.037
NEDD4-like E3 ubiquitin-protein ligase WWP2 D492T, O00308 | -0.085 ± 0.073
NEDD4-like E3 ubiquitin-protein ligase WWP2 E457R, O00308 | -0.251 ± 0.061
NEDD4-like E3 ubiquitin-protein ligase WWP2 E480Q, O00308 | -0.053 ± 0.04
NEDD4-like E3 ubiquitin-protein ligase WWP2 R493L, O00308 | -0.088 ± 0.1
NEDD4-like E3 ubiquitin-protein ligase WWP2 T470N, O00308 | -0.383 ± 0.11
Transcription factor SOX-11 D115N, P35716 | -0.193 ± 0.16
NEDD4-like E3 ubiquitin-protein ligase WWP2 A490C, O00308 | -0.01 ± 0.051
Transcription factor SOX-11 S93L, P35716 | -0.568 ± 0.099
NEDD4-like E3 ubiquitin-protein ligase WWP2 G458Q, O00308 | -0.244 ± 0.064
NEDD4-like E3 ubiquitin-protein ligase WWP2 F479R, O00308 | -0.046 ± 0.049
NEDD4-like E3 ubiquitin-protein ligase WWP2 Y491P, O00308 | -0.003 ± 0.036

Substance | abundance fitness
NEDD4-like E3 ubiquitin-protein ligase WWP2 Y461H, O00308 | -0.526 ± 0.077
NEDD4-like E3 ubiquitin-protein ligase WWP2 T455A, O00308 | -0.659 ± 0.061
NEDD4-like E3 ubiquitin-protein ligase WWP2 S481I, O00308 | -0.047 ± 0.067
NEDD4-like E3 ubiquitin-protein ligase WWP2 H465E, O00308 | -0.396 ± 0.062
NEDD4-like E3 ubiquitin-protein ligase WWP2 G486V, O00308 | -0.01 ± 0.043
NEDD4-like E3 ubiquitin-protein ligase WWP2 T471C, O00308 | -0.59 ± 0.1
NEDD4-like E3 ubiquitin-protein ligase WWP2 E443K, O00308 | -0.062 ± 0.073
NEDD4-like E3 ubiquitin-protein ligase WWP2 E451V, O00308 | -0.113 ± 0.031
NEDD4-like E3 ubiquitin-protein ligase WWP2 H465D, O00308 | -0.461 ± 0.06
NEDD4-like E3 ubiquitin-protein ligase WWP2 R460A, O00308 | -0.072 ± 0.044
NEDD4-like E3 ubiquitin-protein ligase WWP2 Q442Y, O00308 | 0.033 ± 0.048
NEDD4-like E3 ubiquitin-protein ligase WWP2 R476K, O00308 | -0.248 ± 0.069
NEDD4-like E3 ubiquitin-protein ligase WWP2 P475L, O00308 | -0.876 ± 0.04
NEDD4-like E3 ubiquitin-protein ligase WWP2 P448D, O00308 | 0.09 ± 0.059
NEDD4-like E3 ubiquitin-protein ligase WWP2 E451H, O00308 | -0.54 ± 0.089
NEDD4-like E3 ubiquitin-protein ligase WWP2 E451F, O00308 | -0.572 ± 0.083
NEDD4-like E3 ubiquitin-protein ligase WWP2 T469F, O00308 | -0.215 ± 0.068
NEDD4-like E3 ubiquitin-protein ligase WWP2 R476A, O00308 | -0.291 ± 0.058
NEDD4-like E3 ubiquitin-protein ligase WWP2 G482Y, O00308 | -0.089 ± 0.045
NEDD4-like E3 ubiquitin-protein ligase WWP2 T483Q, O00308 | -0.106 ± 0.071
